Results reported in US20150297680A1.

Target: human serum albumin (HSA) (human) (UniProt P02768)
Assay: HSA-coupled agarose beads, washed with PBS, fluorescence plate reader (ex 480 nm, em 510 nm)

Chain of UniProt P02768 (P02768 25-609 limits assumed): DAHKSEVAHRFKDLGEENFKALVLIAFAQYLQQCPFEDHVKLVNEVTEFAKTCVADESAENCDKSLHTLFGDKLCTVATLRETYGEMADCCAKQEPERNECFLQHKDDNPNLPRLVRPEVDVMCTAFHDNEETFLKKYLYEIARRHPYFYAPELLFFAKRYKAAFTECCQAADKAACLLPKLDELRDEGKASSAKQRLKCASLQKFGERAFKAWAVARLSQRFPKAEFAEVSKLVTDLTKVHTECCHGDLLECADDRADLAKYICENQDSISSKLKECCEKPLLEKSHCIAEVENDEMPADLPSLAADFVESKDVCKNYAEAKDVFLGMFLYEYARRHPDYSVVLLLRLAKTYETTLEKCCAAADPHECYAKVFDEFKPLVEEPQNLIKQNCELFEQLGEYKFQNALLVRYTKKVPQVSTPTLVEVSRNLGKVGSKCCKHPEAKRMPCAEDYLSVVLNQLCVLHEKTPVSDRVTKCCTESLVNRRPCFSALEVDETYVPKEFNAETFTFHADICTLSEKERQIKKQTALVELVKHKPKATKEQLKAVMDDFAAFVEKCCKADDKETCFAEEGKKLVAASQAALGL

- fold fluorescence of HSA-coupled beads against those with sfGFP-WT: 20 fold
Substance: palmitic acid-conjugated superfolder green fluorescent protein (sfGFP-Pal)
